T1: sCD32B-Ig (human, UniProt P31994 43-217)
T1 construct: extracellular domain; also called CD32B (plate coat of the sandwich ELISA); not shown: Ig part not described
T1 sequence (looked up): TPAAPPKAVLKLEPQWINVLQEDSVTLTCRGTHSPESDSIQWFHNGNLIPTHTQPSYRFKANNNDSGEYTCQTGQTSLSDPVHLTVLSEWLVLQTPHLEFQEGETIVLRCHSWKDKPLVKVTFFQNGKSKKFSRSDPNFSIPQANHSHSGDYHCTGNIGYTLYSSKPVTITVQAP


Tests used:
soluble CD16A (sCD16A) = biological target: T2, soluble CD16A (sCD16A) (human, UniProt P08637 17-208); assay: sandwich ELISA, CD32B coat, HRP-CD16 probe
T2 construct: extracellular domain; also called sCD16A-Biotin; HRP conjugated sCD16A

sCD32B-Ig = biological target: T1, sCD32B-Ig; assay: sandwich ELISA, CD32B coat, HRP-CD16 probe

T2 sequence (P08637 17-208): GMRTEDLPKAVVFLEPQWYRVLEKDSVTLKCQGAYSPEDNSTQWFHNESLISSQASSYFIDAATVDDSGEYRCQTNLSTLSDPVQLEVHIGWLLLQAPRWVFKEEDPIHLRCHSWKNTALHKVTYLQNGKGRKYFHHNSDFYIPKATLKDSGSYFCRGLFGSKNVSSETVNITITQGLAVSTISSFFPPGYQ

Row | binding result (soluble CD16A (sCD16A)) | binding result (sCD32B-Ig) | Binder
1 | binds | binds | diabody of constructs 9 and 1 (pMGX0719 + pMGX0669) (bispecific antibody, human IgG1, hinge/Fc at the N-terminus of the heavier chain; about 150 kDa species on Western blot; also called constructs 1 and 9; constructs 9+1) chain 1: not shown chain 2: EIVLTQSPDFQSVTPKEKVTFTCRTSQSIGTNIHWYQQKPDQSPKLLIKEVSESISGVPSRFSGSGSGTDFTLTINSLEAEDAATYYCQQSNTWPFTFGGGTKVEIKGGGSGGGGQVTLRESGPALVKPTQTLTLTCTFSGFSLSTSGMGVGWIRQPPGKALEWLAHIWWDDDKRYNPALKSRLTISKDTSKNQVVLTMTNMDPVDTATYYCAQINPAWFAYWGQGTLVTVSSLGGC
2 | binds | binds | diabody of constructs 10 and 1 (pMGX0718 + pMGX0669) (bispecific antibody, Fc at the N-terminus of the heavier chain; at least two species of about 75 and 100 kDa on Western blot; also called constructs 1 and 10; constructs 10+1; copies: 2 + 2) chain 1: not shown chain 2: EIVLTQSPDFQSVTPKEKVTFTCRTSQSIGTNIHWYQQKPDQSPKLLIKEVSESISGVPSRFSGSGSGTDFTLTINSLEAEDAATYYCQQSNTWPFTFGGGTKVEIKGGGSGGGGQVTLRESGPALVKPTQTLTLTCTFSGFSLSTSGMGVGWIRQPPGKALEWLAHIWWDDDKRYNPALKSRLTISKDTSKNQVVLTMTNMDPVDTATYYCAQINPAWFAYWGQGTLVTVSSLGGC

— EP2158221B1 (MacroGenics, Inc., dated 2018)
